Test results published in patent US20240166594A1, “PHOTOCAGED CITRULLINE ANALOGS AND METHODS FOR SITE-SPECIFIC INCORPORATION OF CITRULLINE INTO PROTEINS” (University of Massachusetts, priority 2021, published 2024).
Values joined by “and” are separate entries in the source; they are usually repeats but may differ in a detail not shown here. Equal entries are not always repeated. Values belong to the molecule of their own block, whether it stands above or below them. Where a SMILES comes first, the peptide text is derived from it.

What was measured:
[1] = molecular target: T1, WT PAD4 (Homo sapiens, UniProt Q9UM07); experiment: Thermal shift assay with GSK199, wild-type PAD4; assay type: binding; conditions: GSK199 10 μM, EXPI293F lysate
T1 construct: FLAG (N); His tag (C); expressed in transfected cells; host or cells: EXPI293F
Description: (§1) A 50 μL reaction mixture (EXPI293F lysate containing overexpressed wild-type PAD4 (1.5 mg/mL) or R374Cit mutant (2 mg/mL), 1×PBS and DMSO (1% final)) was heated at various temperatures (25, 40, 50, 60, 65, 70, 75, 85 and 90° C.) for 5 min followed by flash freezing with liquid nitrogen. The samples were thawed and the precipitated proteins were separated by centrifugation (15000 rpm, 30 min) at 4° C. 40 μL of the supernatant was mixed with 10 μL of 5×SDS-PAGE loading dye and the mixture was boiled at 95° C. for 10 min. The proteins were separated by SDS-PAGE using a 4-20% gradient gel and the soluble fractions of PAD4 were quantitated by western blot analysis using a rabbit polyclonal anti-PAD4 antibody. This assay was also performed separately in the presence of CaCl2 (1 mM final) and a PAD4-selective ligand, GSK199 (10 μM final). For these assays, the reaction mixture was incubated with CaCl2 or GSK199 at room temperature for 5 min before heating up at different temperatures. All the reactions were performed at least in duplicate.

[2] = system: R374Cit PAD4; experiment: Thermal shift assay with GSK199, R374Cit PAD4; assay type: binding; conditions: GSK199 10 μM
Description: as §1

[3] = Solubility of decaged peptide observed during SM70 decaging; assay type: physicochemical; conditions: decaged peptide from SM70; turbid even in 1:1 acetonitrile/PBS
Description: FIG. 10. (A) Decaging of SM70, a PAD4-derived peptide (residues 363-372 with SM60 at the 372 position. Prolines at 365 and 371 positions were replaced with W and A, respectively, and a lysine residue was added to the C-terminus for ease of synthesis.). (B) HPLC chromatogram of SM70 before and after 5 min of 365 nm irradiation. […] Even after performing the reaction in 1:1 acetonitrile/PBS, the solution became turbid upon the formation of the decaged peptide. Assay condition: 200 μM SM70, 2 mM DTT, 1:1 acetonitrile/PBS (pH 7.4). (C) ESI mass spectrum of the citrulline-containing peptide (decaged product).

[4] = system: HEK293T cells; experiment: Cytotoxicity of PAD4 expression in HEK293T cells (CellTiter-Blue); assay type: cell-based
Description: HEK293T cells were seeded (2×10^4 cells/well) on 96-well plate and were allowed to grow in DMEM (supplemented with 10% heat-inactivated fetal bovine serum, 100 units/mL penicillin, 100 μg/mL streptomycin) for 48 h. Cells were then transfected with appropriate plasmids (120 ng PAD4 plasmid and 80 ng pIDTSMART eRF1 E55D for each well) using Lipofectamine 2000 (500 ng for each well) in Opti-MEM medium (Gibco). After 5 h, the medium was changed to DMEM and DMSO (for WT PAD4) or SM60 (0.25, […] and 1 mM for R374Cit PAD4) was added. Cells were then allowed to grow at 37° C. for 48 h. Cell viability was measured before and after photodecaging (by UV treatment for 3 min) using CellTiter-Blue® (Promega) by following the manufacturer's protocol. Untransfected cells served as the control. All the experiments were performed in triplicate.

[5] = Michaelis-Menten kinetics of wild-type and mutant PAD4 (COLDER assay); assay type: biochemical; conditions: substrate BAEE, 10 mM CaCl2, pH 7.4, 37° C.
Description: PAD4 (50 nM final for wild-type, 75 nM final for R372Cit, and 100 nM final for R374Cit) was added to a pre-warmed (10 min, 37° C.) reaction mixture (60 μL final) containing various concentrations of BAEE (0, 0.5, 1, 2.5, 5 and 10 mM), CaCl2 (10 mM), TRIS-HCl (100 mM, pH 7.4), NaCl (50 mM) and DTT (2 mM). This mixture was incubated at 37° C. for 45 min (for wild-type), 90 min (for R374Cit) and 120 min (for R372Cit) followed by quenching with liquid nitrogen. The rate of citrulline formation at various BAEE concentrations was quantified with the COLDER assay. The rates were plotted against the BAEE concentration and were fit to the Michaelis-Menten equation using Graphpad Prism. All the reactions were performed at least in duplicate.

[6] = Calcium-dependence of wild-type PAD4 (COLDER assay); assay type: biochemical; conditions: 10 mM BAEE, pH 7.4, 37° C.
Description: PAD4Bac (purified from bacterial expression system) and PAD4Mam (purified from mammalian expression system) (6 μL of 0.5 μM stock, 50 nM final) were added to separate pre-warmed (10 min, 37° C.) reaction mixtures (60 μL final) containing BAEE (10 mM), various concentrations of CaCl2 (0, 0.25, 0.5, 1, 2.5, 5 and 10 mM), TRIS-HCl (100 mM, pH 7.4), NaCl (50 mM) and DTT (2 mM). This mixture was incubated at 37° C. for 45 min followed by flash freezing with liquid nitrogen. The production of citrulline at various concentration of CaCl2 by PAD4 was quantified with the COLDER assay. (Tanikawa, et al. 2012 Nat. Commun. 3, 676; Zhang, et al. 2012 Proc. Natl. Acad. Sci. USA 109, 13331-13336.)
The calcium-dependence of citrulline production by PAD4 was fit to the equation 2,
v=Vmax*[Ca^2+]^h/(K0.5^h+[Ca^2+]^h) (2)
using Graphpad Prism, where v is the velocity of the reaction, Vmax is the maximum velocity of the reaction, [Ca^2+] is the concentration of calcium, h is the hill slope and K0.5 is the calcium concentration that gives half-maximal velocity. All the reactions were performed at least in duplicate.

[7] = system: histone H3; experiment: Histone H3 citrullination in live HEK293T cells (western blot); assay type: cell-based; conditions: calcium and ionomycin, 3 h
Description: HEK293T cells were seeded (4×10^5 cells/well) on 6-well plates and were allowed to grow in DMEM (supplemented with 10% heat-inactivated fetal bovine serum, 100 units/mL penicillin, 100 μg/mL streptomycin) for 48 h. Cells were then transfected with appropriate plasmids (3 μg PAD4 plasmid and 2 μg pIDTSMART eRF1 E55D for each well) using Lipofectamine 2000 (12.5 μg for each well) in Opti-MEM medium (Gibco). After 5 h, the medium was changed to DMEM and DMSO (for WT PAD4) or SM60 (1 mM for R374Cit PAD4) was added. Cells were then allowed to grow at 37° C. for 48 h. Cells were washed with serum-free DMEM (supplemented with 100 units/mL penicillin, […] streptomycin), resuspended in the same medium and were irradiated with 365 nm UV for 3 min. Then the cells were treated with CaCl2 (1 mM) and a combination of CaCl2 (1 mM) and ionomycin (5 μM) for 3 h at 37° C. After this, cells were lysed and the lysates were analyzed by Western blotting using anti-histone H3 citrulline (R2,8,17) and anti-histone H3 primary antibodies. PAD4 expression was quantified by using an anti-PAD4 primary antibody. Band intensities for citrullinated histone H3 were normalized against those for histone H3 and PAD4 using the following algorithm,
Normalized histone H3Cit=[H3Cit/(H3_33 PAD4)]×10^6
All the experiments were performed in triplicate.

[8] = Thermal shift assay, melting temperature of PAD4 in EXPI293F lysate; assay type: physicochemical; conditions: no ligand
Description: as §1

T1 sequence (Q9UM07 whole entry G112A): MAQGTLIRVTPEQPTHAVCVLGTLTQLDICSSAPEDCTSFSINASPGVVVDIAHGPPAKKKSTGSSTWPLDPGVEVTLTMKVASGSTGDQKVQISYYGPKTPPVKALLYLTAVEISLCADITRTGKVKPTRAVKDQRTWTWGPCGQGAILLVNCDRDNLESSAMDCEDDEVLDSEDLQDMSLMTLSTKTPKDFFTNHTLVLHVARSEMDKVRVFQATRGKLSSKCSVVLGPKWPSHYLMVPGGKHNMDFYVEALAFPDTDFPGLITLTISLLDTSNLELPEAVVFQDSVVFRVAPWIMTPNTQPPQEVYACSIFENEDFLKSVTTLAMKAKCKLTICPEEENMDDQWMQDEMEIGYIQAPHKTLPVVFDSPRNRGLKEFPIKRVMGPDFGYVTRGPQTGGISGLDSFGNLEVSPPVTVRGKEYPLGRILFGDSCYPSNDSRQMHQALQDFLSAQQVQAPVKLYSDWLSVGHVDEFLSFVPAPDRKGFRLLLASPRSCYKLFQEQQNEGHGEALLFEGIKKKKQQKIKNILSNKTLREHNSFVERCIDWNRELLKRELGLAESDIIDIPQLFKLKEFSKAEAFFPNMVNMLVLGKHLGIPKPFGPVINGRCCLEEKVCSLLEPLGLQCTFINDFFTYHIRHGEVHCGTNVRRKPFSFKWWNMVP

effect on Tm of WT PAD4 [1]: increased the Tm of WT PAD4
binding to R374Cit mutant ([2]; inferred from thermal shift): binds poorly to the R374Cit mutant
Molecule: CCn1c(-c2nc3cc(C(=O)N4CCCC(N)C4)cc(OC)c3n2C)cc2cccnc21 (stereo not shown) [GSK199]
effect on Tm of R374Cit PAD4 ([2]; EXPI293F lysate): did not increase the Tm of the R374Cit mutant

Molecule: CC(C)C[C@H](NC(=O)[C@@H](N)[C@@H](C)O)C(=O)N[C@@H](Cc1c[nH]c2ccccc12)C(=O)N[C@H](C(=O)N[C@H](C(=O)N[C@@H](Cc1ccccc1)C(=O)N[C@@H](CC(=O)O)C(=O)N[C@@H](CO)C(=O)N[C@@H](C)C(=O)N[C@@H](CCCNC(N)=O)C(=O)N[C@@H](CCCCN)C(=O)O)C(C)C)C(C)C [decaged product] (HELM PEPTIDE1{T.L.W.V.V.F.D.S.A.[Cit].K}$$$$V2.0)
solubility in aqueous buffer [3]: extremely low solubility in aqueous buffer

Molecule: PAD4: Protein Arginine Deiminase 4 (WT and R374Cit) overexpressed in HEK293T cells
cytotoxicity of expression [4]: does not cause any cytotoxicity

Molecule: PAD4Bac: wild-type PAD4 purified from bacterial (E. coli) expression system
Km [5]: 700 ± 100 µM
kcat [5]: 3.4 ± 0.2 S^−1
K0.5 (Ca^2+ concentration for half-maximal activity) [6]: 0.9 mM and 0.9 ± 0.10 mM

Molecule: PAD4Mam: wild-type PAD4 purified from mammalian expression system (HEK293T), N-terminal FLAG and C-terminal His tag
Km [5]: 1100 ± 200 µM
kcat [5]: 3.7 ± 0.1 S^−1
K0.5 (Ca^2+ concentration for half-maximal activity) [6]: 0.9 mM and 0.9 ± 0.05 mM

Molecule: WT PAD4: wild-type Protein Arginine Deiminase 4
times more active than the R374Cit mutant for the citrullination of histone H3 [7]: 6 times
melting temperature (Tm) [8]: 62.9 °C
